Results reported in PMC4231748, “Human PrimPol mutation associated with high myopia has a DNA replication defect”.

Target: T1, PrimPolY89D1-354 (polymerase domain) (human, UniProt Q96LW4 1-354, Y89D)
T1 sequence: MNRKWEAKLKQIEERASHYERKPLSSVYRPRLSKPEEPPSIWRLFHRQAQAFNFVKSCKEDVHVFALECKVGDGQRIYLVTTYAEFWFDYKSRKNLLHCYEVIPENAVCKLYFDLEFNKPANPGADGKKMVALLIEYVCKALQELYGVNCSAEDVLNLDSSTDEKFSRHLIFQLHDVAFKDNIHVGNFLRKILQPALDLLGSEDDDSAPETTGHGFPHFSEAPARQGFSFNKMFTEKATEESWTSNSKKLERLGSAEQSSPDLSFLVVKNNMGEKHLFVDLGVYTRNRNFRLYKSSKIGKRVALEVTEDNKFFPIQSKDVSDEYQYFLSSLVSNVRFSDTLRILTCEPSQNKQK
Assay: EMSA; 10 mM Mg2+; EMSA: 60 nM DNA, 10 mM Bis-Tris-Propane-HCl pH 7.0, 10 mM MgCl2, 1 mM DTT, 25 C, 60 min; 5% polyacrylamide gel in 0.5x TBE
Conditions: protein: recombinant; label: 5'-Hex on strand 1 (HP-20); 20 bp duplex, 5' overhang 30 nt on template strand (S12), other end blunt

B1: Overhanging DNA substrate (HP-20 primer / ND-50 TemplateTT) (dsDNA)
DNA 1: TGTCGTCTGTTCGGTCGTTC
DNA 2: CGCGCAGGGCGCACAACAGCCTTGAAGACCGAACGACCGAACAGACGACA
  Kd: 2.55 µM
